One molecule from article PMC6430810 (2019) can be followed below.

Test [1] has as its target T1, human 4EHP (residues 45-234) for ITC (human, UniProt O60573 45-234).
T1 chain: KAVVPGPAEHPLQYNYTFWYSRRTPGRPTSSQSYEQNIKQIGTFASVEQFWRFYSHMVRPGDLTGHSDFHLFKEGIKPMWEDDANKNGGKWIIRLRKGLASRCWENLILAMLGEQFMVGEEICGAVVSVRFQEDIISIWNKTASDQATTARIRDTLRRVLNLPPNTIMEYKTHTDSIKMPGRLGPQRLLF
Put plainly: ITC. In general terms: ITC needs no label: the signal is the heat of the interaction.

For test [2], the target named is T1, human 4EHP (residues 45-234) for ITC. Put plainly: ITC; VP-ITC, 25 °C; TRS (1-74, 0.6 mM) in the syringe titrated against 4EHP (45-234, 0.035 mM); single binding site model.

The Kd is the equilibrium constant for the complex coming apart. In general, stoichiometry N refers to a count of units in the complex or per binding partner.

B1: human TRS UNE-T (residues 1-74) with C-terminal His tag (domain or fragment)
chain: MFEEKASSPSGKMGGEEKPIGAGEEKQKEGGKKKNKEGSGDGGRAELNPWPEYIYTRLEMYNILKAEHDSILAE
For B1, the Ka in test [1] stood at 403000 M⁻¹. In test [2], the Kd worked out at 2480 nM and the stoichiometry N was determined as 1.
